Assay results as given in patent US20250002588A1 (DIAGONAL THERAPEUTICS, published 2025).
Residue numbers refer to the chain shown, from its start.

B1: DGL865 (bispecific antibody)
chain 1: not shown
chain 2: EVQLLESGGGLVQPGGSLRLSCAASGFTFSDSYMSWIRQAPGKGLEWVSSISGGSTYYADSVKGRFTISRDNSENTLYLQMNSLRAEDTAVYYCARDFGVAGYFGQYGMDVWGQGTLVTVSSGGGGSGGGGSGGGGSQSVLTQPPSASGTPGQRVTISCTGSSSNIGAGYDVHWYQQLPGTAPKLLIYRSNQRPSGVPDRFSGSKSGTSASLAISGLRSEDEADYYCSSYAGNYNLVFGGGTKLTVLDKTHTCPPCPAPEAAGAPSVFLFPPKPKDTLMISRTPEVTCVVVDVSHEDPEVKFNWYVDGVEVHNAKTKPREEQYNSTYRVVSVLTVLHQDWLNGKEYKCKVSNKALPAPIEKTISKAKGQPREPQVCTLPPSRDELTKNQVSLSCAVKGFYPSDIAVEWESNGQPENNYKTTPPVLDSDGSFFLVSKLTVDKSRWQQGNVFSCSVMHEALHNHYTQKSLSLSPGWSHPQFEK
B2: DGL867 (bispecific antibody)
chain 1: not shown
chain 2: B1 chain 2 with S32Y, S35N, Y103W, Q106Y
B3: DGL868 (bispecific antibody)
chain 1: not shown
chain 2: B1 chain 2 with S32Y, S35N, Y103W, Q106Y
B4: DGL866 (bispecific antibody)
chain 1: not shown
chain 2: B1 chain 2 with S32Y, S35N, Y103W, Q106Y
B5: DGL639 (bispecific antibody)
chain 1: EVQLLESGGGLVQPGGSLRLSCAASGFTFSDYYMTWIRQAPGKGLEWVSSISGGSTYYADSRKGRFTISRDNSENTLYLQMNSLRAEDTAVYYCARNVTSGGYFGSFGLDLWGQGTLVTVSSGGGGSGGGGSGGGGSQSVLTQPPSASGTPGQRVTISCTGSSSNIGAGYDVHWYQQLPGTAPKLLIYRSNQRPSGVPDRFSGSKSGTSASLAISGLRSEDEADYYCSSYAGNYNLVFGGGTKLTVLDKTHTCPPCPAPEAAGAPSVFLFPPKPKDTLMISRTPEVTCVVVDVSHEDPEVKFNWYVDGVEVHNAKTKPREEQYNSTYRVVSVLTVLHQDWLNGKEYKCKVSNKALPAPIEKTISKAKGQPREPQVCTLPPSRDELTKNQVSLSCAVKGFYPSDIAVEWESNGQPENNYKTTPPVLDSDGSFFLVSKLTVDKSRWQQGNVFSCSVMHEALHNHYTQKSLSLSPGWSHPQFEK
chain 2: not shown
B6: DGL638 (bispecific antibody)
chain 1: B5 chain 1 with V98E, T99V, F104Y, S106E, D110S
chain 2: not shown
B7: DGL636 (bispecific antibody)
chain 1: B5 chain 1 with N97W, V98E, G101S, Y103G, F107G, D110S, L111H
chain 2: not shown
B8: DGL637 (bispecific antibody)
chain 1: B5 chain 1 with N97L, V98T, T99V, S100D, Y103G, F104Y, F107G
chain 2: not shown
B9: DGL640 (bispecific antibody)
chain 1: B5 chain 1 with N97W, V98E, F104Y, F107G, D110T, L111I
chain 2: not shown
B10: DGL631 (bispecific antibody)
chain 1: not shown
chain 2: EVQLLESGGGLVQPGGSLRLSCAASGFTFSNAWMNWVRQAPGKGLEWVSSISSSSSYIYYADSVKGRFTISRDNSKNTLYLQMNSLRAEDTAVYYCARAVAAGGMFWGLDQWGQGTLVTVTSSGGGGSGGGGSGGGGSQSVLTQPPSASGTPGQRVTISCSGSRSNIGSNSVHWYQQLPGTAPKLLIYGNSNRPSGVPDRFSGSKSGTSASLAISGLRSEDEADYYCQSYDSSLNDHVVFGGGTKLTVLDKTHTCPPCPAPEAAGAPSVFLFPPKPKDTLMISRTPEVTCVVVDVSHEDPEVKFNWYVDGVEVHNAKTKPREEQYNSTYRVVSVLTVLHQDWLNGKEYKCKVSNKALPAPIEKTISKAKGQPREPQVCTLPPSRDELTKNQVSLSCAVKGFYPSDIAVEWESNGQPENNYKTTPPVLDSDGSFFLVSKLTVDKSRWQQGNVFSCSVMHEALHNHYTQKSLSLSPGWSHPQFEK
B11: DGL650 (bispecific antibody)
chain 1: B10 chain 2 with N31L, S55T, M105F
chain 2: not shown
B12: DGL643 (bispecific antibody)
chain 1: B10 chain 2 with A99S, V100N, A101G, A102S, M105S, F106D, W107Y, G108P, Q111L
chain 2: not shown
B13: DGL630 (bispecific antibody)
chain 1: not shown
chain 2: B10 chain 2
B14: DGL623 (bispecific antibody)
chain 1: not shown
chain 2: B10 chain 2
B15: DGL621 (bispecific antibody)
chain 1: not shown
chain 2: B10 chain 2
B16: DGL642 (bispecific antibody)
chain 1: B10 chain 2 with A99S, V100N, A101G, A102S, M105S, F106T, W107Y, G108P, Q111L
chain 2: not shown
B17: DGL622 (bispecific antibody)
chain 1: not shown
chain 2: B10 chain 2
B18: DGL632 (bispecific antibody)
chain 1: not shown
chain 2: B10 chain 2
B19: DGL646 (bispecific antibody)
chain 1: B10 chain 2 with A101G, G103S, G104T, M105V, F106Y, W107F
chain 2: not shown

Legend:
[1] = target: ALK-1/BMPR-2 receptor pair of the PathHunter U2Os dimerization cells (DiscoverX 93-0962C3) (UniProt P37023 22-503; Q13873 27-1038); assay: cell-based or functional assay
[2] = target: human ALK1 protein (Sino Biological, #10066-H08H) (human, UniProt P37023 22-118); assay: ELISA, coated human ALK1
Method: These binders were then tested using an ELISA assay. High binding plates (Corning, 9018) were coated with either 2 μg/ml of human BMPRII protein (Sino Biological, #10551-H08H) or 2 μg/ml of human ALK1 protein (Sino Biological, #10066-H08H) overnight at 4C. The plates were then washed three times with wash buffer (R&D Systems, WA126). […] The plates were then washed three times with wash buffer and DGL antibodies or controls, which were diluted with PBS and 0.1% BSA. The antibodies were incubated for one hour at room temperature and then the plates were washed three times with wash buffer. The plates were then incubated with mouse anti-human IgG Fc secondary—HRP (diluted with PBS/0.1% BSA); 100 ul per well at 2 μg/ml and incubated at room temperature for one hour. The plate was washed three times in wash buffer and then 100 ul TMB (R&D Systems, DY9998B, substrate reagent pack). After the wells turn blue, 50 ul of stop solution (R&D Systems, DY994) was added to each well and the absorbance of the plate was read at 450 nm. results can be found in Table 8.

ALK-1/BMPR-2 receptor pair of the PathHunter U2Os dimerization cells (DiscoverX 93-0962C3), sequence (P37023 22-503, chain 1 of 2): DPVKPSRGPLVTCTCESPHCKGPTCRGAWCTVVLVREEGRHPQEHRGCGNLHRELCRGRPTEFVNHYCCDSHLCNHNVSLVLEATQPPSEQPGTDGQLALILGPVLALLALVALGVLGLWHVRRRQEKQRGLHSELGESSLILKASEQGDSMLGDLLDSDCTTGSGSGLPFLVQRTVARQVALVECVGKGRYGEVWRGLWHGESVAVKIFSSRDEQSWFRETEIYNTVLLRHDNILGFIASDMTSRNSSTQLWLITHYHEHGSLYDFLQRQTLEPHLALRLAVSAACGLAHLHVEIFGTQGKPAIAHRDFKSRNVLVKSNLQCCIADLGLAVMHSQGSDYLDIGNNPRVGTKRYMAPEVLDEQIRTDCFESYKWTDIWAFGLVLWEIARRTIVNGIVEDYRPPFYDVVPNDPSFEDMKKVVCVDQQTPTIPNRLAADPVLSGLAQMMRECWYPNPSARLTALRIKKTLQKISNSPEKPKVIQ
ALK-1/BMPR-2 receptor pair of the PathHunter U2Os dimerization cells (DiscoverX 93-0962C3), sequence (Q13873 27-1038, chain 2 of 2): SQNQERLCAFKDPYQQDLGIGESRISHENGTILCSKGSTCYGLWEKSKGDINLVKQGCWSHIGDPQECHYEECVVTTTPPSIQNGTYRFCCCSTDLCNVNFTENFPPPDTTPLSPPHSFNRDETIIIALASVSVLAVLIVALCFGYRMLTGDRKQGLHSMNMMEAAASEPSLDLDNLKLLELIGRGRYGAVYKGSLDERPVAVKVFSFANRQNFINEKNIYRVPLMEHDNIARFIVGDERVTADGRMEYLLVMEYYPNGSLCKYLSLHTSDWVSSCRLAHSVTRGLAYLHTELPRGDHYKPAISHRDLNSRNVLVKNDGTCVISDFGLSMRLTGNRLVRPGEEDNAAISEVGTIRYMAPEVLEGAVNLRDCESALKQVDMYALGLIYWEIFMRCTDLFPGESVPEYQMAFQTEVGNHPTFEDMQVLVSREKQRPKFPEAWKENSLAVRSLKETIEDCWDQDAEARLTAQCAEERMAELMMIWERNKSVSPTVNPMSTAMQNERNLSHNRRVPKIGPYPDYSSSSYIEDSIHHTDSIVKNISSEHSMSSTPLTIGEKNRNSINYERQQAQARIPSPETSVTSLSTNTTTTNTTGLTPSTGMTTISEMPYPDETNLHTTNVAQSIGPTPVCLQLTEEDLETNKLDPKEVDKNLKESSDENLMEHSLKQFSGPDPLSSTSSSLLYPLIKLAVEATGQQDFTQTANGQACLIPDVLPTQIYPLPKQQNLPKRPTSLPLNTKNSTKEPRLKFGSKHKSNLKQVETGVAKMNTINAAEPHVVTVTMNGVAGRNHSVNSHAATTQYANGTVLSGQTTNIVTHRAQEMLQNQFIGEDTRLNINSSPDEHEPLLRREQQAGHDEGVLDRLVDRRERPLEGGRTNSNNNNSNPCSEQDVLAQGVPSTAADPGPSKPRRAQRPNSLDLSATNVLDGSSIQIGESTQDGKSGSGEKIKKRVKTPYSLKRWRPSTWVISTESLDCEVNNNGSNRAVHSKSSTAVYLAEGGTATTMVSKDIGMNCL
human ALK1 protein (Sino Biological, #10066-H08H), sequence (P37023 22-118 limits assumed): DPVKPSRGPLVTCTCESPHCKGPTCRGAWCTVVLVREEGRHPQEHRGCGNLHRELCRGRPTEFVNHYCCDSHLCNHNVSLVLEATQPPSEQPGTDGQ

Binder | % Emax BMP9 [1] | Emax (RLU) [1] | Abs450 1 nM [2] | Abs450 10 nM [2] | Abs450 100 nM [2]
B1 | 30% | 755000 RLU | – | – | –
B2 | 58% | 1.48e+06 RLU | – | – | –
B3 | 67% | 1.71e+06 RLU | – | – | –
B4 | 45% | 1.15e+06 RLU | – | – | –
B5 | 41% | 752000 RLU | 0.09 | 0.46 | 1.39
B6 | 80% | 1.47e+06 RLU | 0.05 | 0.22 | 1.02
B7 | 20% | 362000 RLU | 0.11 | 0.56 | 1.45
B8 | 21% | 382000 RLU | 0.16 | 0.77 | 1.48
B9 | 83% | 1.53e+06 RLU | 0.09 | 0.47 | 1.4
B10 | 13% | 470000 RLU | 0.07 | 0.19 | 0.7
B11 | 43% | 801000 RLU | 0.08 | 0.15 | 0.65
B12 | 13% | 246000 RLU | 0.04 | 0.13 | 0.71
B13 | 5% | 168000 RLU | 0.07 | 0.07 | 0.08
B14 | 30% | 1.11e+06 RLU | 0.14 | 0.61 | 1.43
B15 | 30% | 1.09e+06 RLU | 0.17 | 0.95 | 1.58
B16 | 14% | 255000 RLU | 0.08 | 0.09 | 0.5
B17 | 25% | 936000 RLU | 0.15 | 0.75 | 1.58
B18 | 4% | 130000 RLU | 0.06 | 0.05 | 0.06
B19 | 18% | 333000 RLU | 0.06 | 0.15 | 0.8
